T1: acyl-ACP thioesterase ChFatB2 from Cuphea hookeriana, excluding the transit peptide (residues 129-395) (Cuphea hookeriana, UniProt Q39514 129-395)
T1 construct: acyl-ACP thioesterase ChFatB2, Cuphea hookeriana, residues 129-395, excluding the transit peptide; pCold II vector; source: E. coli BL21 (DE3), purified (Ni-NTA, Superdex 200)
T1 sequence (looked up): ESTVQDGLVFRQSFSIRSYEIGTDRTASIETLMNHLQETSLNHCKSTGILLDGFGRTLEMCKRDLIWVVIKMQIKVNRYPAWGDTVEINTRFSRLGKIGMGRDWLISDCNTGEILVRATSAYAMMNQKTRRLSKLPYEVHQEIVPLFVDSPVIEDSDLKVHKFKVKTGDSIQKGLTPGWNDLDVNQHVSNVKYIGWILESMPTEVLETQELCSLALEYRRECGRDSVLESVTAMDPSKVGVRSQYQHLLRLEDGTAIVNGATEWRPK


Columns and labels:
[1] = molecular target: T1, acyl-ACP thioesterase ChFatB2 from …; assay: liquid crystal assay; ChFatB2 (5 μg/mL, 1.5 µL) dried on DMOAP-coated glass slides; ACP solutions (10 μg/mL, 1.5 µL) deposited on the immobilized ChFatB2, 30 min, washed with deionized water; grayscale of polarised-light images of the liquid crystal cell (Image J); semi-quantitative; holo-ACP defined as 100% binding; conditions: both partners purified
[2] = molecular target: T1, acyl-ACP thioesterase ChFatB2 from …; assay: cell-based or functional assay
[3] = molecular target: T1, acyl-ACP thioesterase ChFatB2 from …; assay: cell-based or functional assay; remark: listed apart in the source

| Binder | grayscale of the liquid crystal image [1] [grayscale] | Km of ChFatB2 thioesterase activity (DTNB assay, Michaelis-Menten fit) [2] [µM] | relative activity of ChFatB2 (thioesterase, DTNB assay) [3] [µmol/min/mg] |
| --- | --- | --- | --- |
| holo acyl carrier protein from Escherichia coli (natural protein, holo form (phosphopantetheine; residue not given), also called holo-EcACP; EC-holo-ACP; source: E. coli BAP1 (chromosomal B. subtilis Sfp), purified (Ni-NTA, Superdex 200)) STIEERVKKIIGEQLGVKQEEVTNNASFVEDLGADSLDTVELVMALEEEFDTEIPDEEAEKITTVQAAIDYINGHQA | 156 ± 3.2 |  |  |
| C10-acyl acyl carrier protein from Escherichia coli (natural protein, C10 (10:0) acyl chain on the phosphopantetheine of holo-ACP (residue not given), also called C10-EcACP) STIEERVKKIIGEQLGVKQEEVTNNASFVEDLGADSLDTVELVMALEEEFDTEIPDEEAEKITTVQAAIDYINGHQA | 138 ± 5.3 | 186 | 0.17 |
| holo acyl carrier protein 2 from Cuphea lanceolata, excluding the chloroplast transit peptide (residues 54-137) (natural protein, UniProt P52412 54-137, looked up, holo form (phosphopantetheine; residue not given), acyl carrier protein ClACP2, Cuphea lanceolata, UniProt P52412, residues 54-137, excluding the chloroplast transit peptide; also called holo-ClACP2; ClACP2; source: E. coli BAP1 (chromosomal B. subtilis Sfp), purified (Ni-NTA, Superdex 200)) QAKPETVTKVCNIVKKQLALPDDSDVSGVSKFSALGADSLDTVEIVMGLEEEFGISVEEESAQSIQTVQDAADLIEKLMEKKGH | 145 ± 19.1 |  |  |

Now from value to binder:

| grayscale of the liquid crystal image [1] [grayscale] | Km of ChFatB2 thioesterase activity (DTNB assay, Michaelis-Menten fit) [2] [µM] | relative activity of ChFatB2 (thioesterase, DTNB assay) [3] [µmol/min/mg] | Binder |
| --- | --- | --- | --- |
| 106 ± 11.8 | 350 | 0.07 | C8-acyl acyl carrier protein from Escherichia coli (natural protein, C8 (8:0) acyl chain on the phosphopantetheine of holo-ACP (residue not given), also called C8-EcACP; C8-ACP) STIEERVKKIIGEQLGVKQEEVTNNASFVEDLGADSLDTVELVMALEEEFDTEIPDEEAEKITTVQAAIDYINGHQA |
| 139 ± 6 | 217 | 0.51 | C8-acyl acyl carrier protein 2 from Cuphea lanceolata (residues 54-137) (natural protein, UniProt P52412 54-137, looked up, C8 (8:0) acyl chain on the phosphopantetheine of holo-ACP (residue not given), acyl carrier protein ClACP2, Cuphea lanceolata, UniProt P52412, residues 54-137, excluding the chloroplast transit peptide; also called C8-ClACP2) QAKPETVTKVCNIVKKQLALPDDSDVSGVSKFSALGADSLDTVEIVMGLEEEFGISVEEESAQSIQTVQDAADLIEKLMEKKGH |
| 96.7 ± 11 | 263 | 0.33 | C10-acyl acyl carrier protein 2 from Cuphea lanceolata (residues 54-137) (natural protein, UniProt P52412 54-137, looked up, C10 (10:0) acyl chain on the phosphopantetheine of holo-ACP (residue not given), acyl carrier protein ClACP2, Cuphea lanceolata, UniProt P52412, residues 54-137, excluding the chloroplast transit peptide; also called C10-ClACP2) QAKPETVTKVCNIVKKQLALPDDSDVSGVSKFSALGADSLDTVEIVMGLEEEFGISVEEESAQSIQTVQDAADLIEKLMEKKGH |

Source: paper PMC10095102, “Conformational Changes of Acyl Carrier Protein Switch the Chain Length Preference of Acyl-ACP Thioesterase ChFatB2” (International Journal of Molecular Sciences, 2023)
